The target in the assay is ArdA protein from the conjugative transposon Tn916 (Enterococcus faecalis). The assay can be described thus: crystal structure.

The stoichiometry N is a count of units in the complex or per binding partner. Consider “ArdA protein from the conjugative transposon Tn916 (natural protein)”, for which the stoichiometry N worked out at 2.

Source of the values: paper PMC2731889.
